From PMC2064808

Molecular target: GST-β3 integrin cytodomain (human) (UniProt P05106)
Test: ELISA

UniProt P05106, sequence (P05106 27-788): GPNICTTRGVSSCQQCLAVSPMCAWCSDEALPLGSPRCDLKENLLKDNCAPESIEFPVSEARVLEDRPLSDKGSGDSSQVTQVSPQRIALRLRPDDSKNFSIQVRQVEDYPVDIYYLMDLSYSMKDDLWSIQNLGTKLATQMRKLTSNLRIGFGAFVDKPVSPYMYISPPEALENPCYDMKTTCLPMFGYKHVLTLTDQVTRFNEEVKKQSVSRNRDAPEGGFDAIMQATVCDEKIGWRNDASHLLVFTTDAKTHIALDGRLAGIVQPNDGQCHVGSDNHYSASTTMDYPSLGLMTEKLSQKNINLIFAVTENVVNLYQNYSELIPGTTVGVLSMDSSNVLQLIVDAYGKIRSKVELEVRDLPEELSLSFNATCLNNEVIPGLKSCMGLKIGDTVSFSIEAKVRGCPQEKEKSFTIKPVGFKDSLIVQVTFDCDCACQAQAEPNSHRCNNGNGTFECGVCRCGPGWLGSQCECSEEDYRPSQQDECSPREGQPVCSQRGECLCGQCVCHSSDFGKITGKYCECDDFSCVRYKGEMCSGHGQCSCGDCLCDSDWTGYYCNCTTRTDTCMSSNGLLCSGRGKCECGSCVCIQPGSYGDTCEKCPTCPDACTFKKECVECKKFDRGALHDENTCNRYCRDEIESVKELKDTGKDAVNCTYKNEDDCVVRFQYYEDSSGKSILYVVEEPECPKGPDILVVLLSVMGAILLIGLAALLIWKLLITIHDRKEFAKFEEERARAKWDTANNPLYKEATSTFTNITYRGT

- fold reduction of affinity against untreated PKD1: 5 fold
B1: His-PKD1 treated with alkaline phosphatase (enzyme)
chain: MSVPPLLRPPSPLLPAAAAVAAAAAALVPGSGPAPFPAPGAAPAGGISFHLQIGLSREPVLLLQDSSGDYSLAHVREMACSIVDQKFPECGFYGLYDKILLFRHDPASDNILQLVKIASDIQEGDLIEVVLSASATFEDFQIRPHALFVHSYRAPAFCDHCGEMLWGLVRQGLKCEGCGLNYHKRCAFKIPNNCSGVRRRRLSNVSLTGLGTVRTASAEFSTSVPDEPLLSPVSPGFEQKSPSESFIGREKRSNSQSYIGRPIQLDKLLMSKVKVPHTFVIHSYTRPTVCQFCKKLLKGLFRQGLQCKDCRFNCHKRCAPKVPNNCLGEVTINGELLSPGAESDVVMEEGSDDNDSERNSGLMDDMDEAMVQDTEMALAEGQSGGAEMQDPDADQEDSNRTISPSTSNNIPLMRVVQSVKHTKRRSSTVMKEGWMVHYTSKDTLRKRHYWRLDSKCITLFQNDTGSRYYKEIPLSEILCLEPAKPSALTPVGATPHCFEITTANVVYYVGENVVNPSSSPPNNSVLPSGIGPDVARMWEVAIQHALMPVIPKGSSVGSGSNSHKDISVSISVSNCQIQENVDISTVYQIFPDEVLGSGQFGIVYGGKHRKTGRDVAIKIIDKLRFPTKQESQLRNEVAILQNLHHPGVVNLECMFETPERVFVVMEKLHGDMLEMILSSEKGRLPEHITKFLITQILVALRHLHFKNIVHCDLKPENVLLASADPFPQVKLCDFGFARIIGEKSFRRSVVGTPAYLAPEVLRNKGYNRSLDMWSVGVIIYVSLSGTFPFNEDEDIHDQIQNAAFMYPPNPWKEISHEAIDLINNLLQVKMRKRYSVDKTLSHPWLQDYQTWLDLRELECRIGERYITHESDDSRWEQYAGEQGLQYPAHLISLSASHSDSPEAEEREMKALSERVSIL
modifications: ~80% dephosphorylation of the kinase by alkaline phosphatase
